According to paper PMC6426604, “First Betalain-Producing Bacteria Break the Exclusive Presence of the Pigments in the Plant Kingdom” (mBio, 2019):

System: N[C@@H](Cc1ccc(O)c(O)c1)C(=O)O
Assay: purified protein
Assay type: biochemical, Gluconacetobacter diazotrophicus
Details: 50 mM sodium phosphate pH 6.5, 10 mM sodium ascorbate, 25 °C, air

Sequence of GdDODA (4,5-DODA from Gluconacetobacter diazotrophicus) (Gluconacetobacter diazotrophicus PA1 5) (chain, as listed by the source): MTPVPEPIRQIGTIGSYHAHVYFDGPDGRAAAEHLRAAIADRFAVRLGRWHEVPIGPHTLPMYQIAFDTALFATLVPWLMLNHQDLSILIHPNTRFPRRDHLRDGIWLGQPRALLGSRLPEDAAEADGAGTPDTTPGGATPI

GdDODA (4,5-DODA from Gluconacetobacter diazotrophicus) (Gluconacetobacter diazotrophicus PA1 5)
Km: 1360 ± 310 µM
kcat: 0.00833 ± 0.000317 s⁻¹
